Results as given in the supplement of paper PMC9732359.
± gives the uncertainty stated by the source.

Experiment: protein stability index of a GFP-peptide fusion (yeast GPS) (PSI 1-4); higher = more stable; sorted into four equal gates, so the index is relative within each strain
Outline: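 Tiled yeast protein peptides of 17 residues were each joined downstream of GFP, on plasmids that also express Cherry. The pooled library was maintained in yeast, and mid-log cultures in leucine-free medium were sorted into four equal gates on the GFP/Cherry ratio. Plasmids from every gate were amplified by PCR and sequenced on Illumina, with barcodes linking reads to strains. The protein stability index of a peptide is its gate-number-weighted read frequency summed over the gates.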

| Sequence | protein stability index (doa10∆) | protein stability index (pdr5∆) | protein stability index (san1∆) | protein stability index (ubr1∆) |
| --- | --- | --- | --- | --- |
| GFERLTVNEPQMSDKHA [SRB7] | 3.06 ± 0.12 | 3.36 ± 0.082 | 3.25 ± 0.14 | 3.16 ± 0.051 |
| DGLIAPGVRVSGEDVII [RPB2] | 3.05 ± 0.12 | 2.69 ± 0.085 | 3.29 ± 0.16 | 2.67 ± 0.095 |
| IDDKTQNDELTMGMRAL [DIS3] | 2.74 ± 0.083 | 2.83 ± 0.068 | 2.87 ± 0.058 | 3 ± 0.059 |
| DNSATSYYELETIIFDS [RRI1] | 3.19 ± 0.076 | 3.17 ± 0.055 | 3.11 ± 0.042 | 3.06 ± 0.041 |
| GAHGNSDPVCLFVCNKD [POP3] | 3 ± 0.098 | 3.37 ± 0.12 | 3.07 ± 0.084 | 2.8 ± 0.059 |
| EIRRSLSLNLGDYGSAK [POP5] | – | 3.06 ± 0.09 | 3.05 ± 0.18 | – |
| TGDADEPELRVLSTEEI [RPO21] | 3.59 ± 0.13 | 3.25 ± 0.099 | 3.49 ± 0.064 | 3.43 ± 0.06 |
| LQQQTPVTIWLFEQIGI [SME1] | 1.66 ± 0.045 | 1.87 ± 0.041 | 1.64 ± 0.072 | 2 ± 0.042 |
| NAGTEKEKESKKDSKPA [YLR335W/NUP2] | 3.31 ± 0.084 | 3.15 ± 0.074 | 3.54 ± 0.056 | 3.42 ± 0.05 |
| EQHNLVKKGPVRLPTKV [RPS20] | 2.45 ± 0.097 | 2.61 ± 0.16 | 2.65 ± 0.063 | 2.64 ± 0.075 |
| KTPNRSSTPKFTKKPVT [SIR4] | 2.77 ± 0.082 | 2.81 ± 0.082 | 2.91 ± 0.056 | 2.94 ± 0.054 |
| GLTNWAAAYATGLLIAR [RPL5] | 1.39 ± 0.18 | 1.26 ± 0.084 | 1.14 ± 0.13 | 1.1 ± 0.027 |
| RVKAMEVDEKPTETYSD [RPT5] | 3.46 ± 0.1 | 3.32 ± 0.075 | 3.1 ± 0.074 | 3.12 ± 0.077 |
| KRQAYAVSEKAGHQTSA [RPL4A] | 2.14 ± 0.12 | 1.4 ± 0.13 | 1.65 ± 0.12 | 2.34 ± 0.078 |
| VSADDFVEEQNVYVLPK [PRP8] | 3.44 ± 0.099 | 3.18 ± 0.11 | 3.07 ± 0.12 | 3.32 ± 0.083 |
| EENEDNDGNNRTNNVPM [NUT1] | 3.11 ± 0.12 | 3.39 ± 0.11 | 3.31 ± 0.16 | 3.56 ± 0.089 |
| KIPLPEVHDLIGFITSG [POP1] | – | 1.66 ± 0.24 | 1.88 ± 0.18 | 1.91 ± 0.14 |
| KLGIESKQPNSAIRKCV [RPS23A] | 3.21 ± 0.11 | 3.25 ± 0.12 | 3.02 ± 0.12 | 3.41 ± 0.054 |
| SKISFIDEDKLYPSFKP [SSN2] | 2.96 ± 0.14 | 2.8 ± 0.12 | 2.25 ± 0.087 | 2.54 ± 0.081 |
| QGDGLLTKLQKYGAAVR [RPN7] | 2.93 ± 0.17 | 2.89 ± 0.14 | 3.17 ± 0.12 | 3.28 ± 0.19 |
| HDVLQKLNTLSEILSFD [YML103C/NUP188] | 2.99 ± 0.068 | 3.2 ± 0.067 | 3.03 ± 0.051 | 3.14 ± 0.041 |

| Sequence | protein stability index (doa10∆) | protein stability index (pdr5∆) | protein stability index (san1∆) | protein stability index (ubr1∆) |
| --- | --- | --- | --- | --- |
| MEKESVYNLALKCAERQ [NUT1] | – | 2.1 ± 0.26 | 2.91 ± 0.21 | – |
| SGYGKRKGTREARLPSQ [RPL19A] | – | 3.29 ± 0.28 | – | 3.49 ± 0.26 |
| TQRIMTNVIAFAFWNLL [YLR018C/POM34] | 1.81 ± 0.069 | 2.13 ± 0.058 | 1.74 ± 0.16 | 1.58 ± 0.027 |
| KVFDTLTRFSHDADLEV [RPN1] | 2.44 ± 0.073 | 2.31 ± 0.054 | 2.44 ± 0.063 | 2.67 ± 0.047 |
| SVISGNLSLYEATAASH [CSN12] | 2.28 ± 0.063 | 2.87 ± 0.068 | 2.8 ± 0.069 | 2.7 ± 0.057 |
| FVPVPSLAGFHKVQTKL [RPS7A] | 2.53 ± 0.075 | 2.71 ± 0.081 | 2.52 ± 0.073 | 2.75 ± 0.088 |
| VFVGSGKGTGKTAMAEL [BRR2] | 3.29 ± 0.12 | 3.54 ± 0.15 | 3.44 ± 0.071 | 3.41 ± 0.098 |
| DSESDSDSETNHKSKDN [SKP1] | 2.75 ± 0.053 | 3.04 ± 0.051 | 3 ± 0.039 | 3.1 ± 0.044 |
| TKESQPTIEEDLTRVYK [FAS2] | 3.46 ± 0.12 | 3.32 ± 0.094 | 3.2 ± 0.07 | 3.48 ± 0.091 |
| SLELQSFQKIPLSRINE [YML103C/NUP188] | 2.67 ± 0.12 | 2.82 ± 0.11 | 2.94 ± 0.07 | 2.88 ± 0.12 |
| MKVEELIIDGFKSYATR [SMC2] | 3.45 ± 0.19 | 3.21 ± 0.08 | 3.11 ± 0.063 | 3.22 ± 0.096 |
| PGGILRAQHVKKLATRP [RPL34A] | 3.04 ± 0.24 | 3.39 ± 0.21 | 3.37 ± 0.16 | 3.02 ± 0.14 |
| IHYSWSFILYYRRALQS [YML103C/NUP188] | 1.48 ± 0.064 | 1.09 ± 0.042 | 1.26 ± 0.11 | 1.12 ± 0.082 |
| SKLGKNLQTVHFGHCFN [GRR1] | 1.42 ± 0.092 | – | 2.68 ± 0.11 | 2.25 ± 0.11 |
| KTKILEVAIRDVNLDVR [IRR1] | 2.58 ± 0.055 | 2.12 ± 0.065 | 2.38 ± 0.057 | 2.48 ± 0.052 |
| LGHTKAALGEVASMELK [SIR2] | 2.79 ± 0.085 | 2.96 ± 0.077 | 3.23 ± 0.064 | 2.98 ± 0.12 |
| ASLTAARTAANSIYCPT [RPN6] | 2.53 ± 0.19 | 2.66 ± 0.1 | 2.84 ± 0.093 | 2.49 ± 0.045 |
| NKIRNLELPLCPYCYKK [SIR2] | 2.52 ± 0.055 | 1.95 ± 0.062 | 1.97 ± 0.069 | 1.98 ± 0.074 |
| NTLEFIIEQLSIAAERY [YCG1] | 2.29 ± 0.052 | 2.62 ± 0.072 | 2.16 ± 0.066 | 2.39 ± 0.036 |
| FIFQIIEITNSNDLCSQ [SRB8] | 1.39 ± 0.059 | 1.62 ± 0.049 | 1.71 ± 0.1 | 1.21 ± 0.075 |
| KDLVTENAYDNPLADAE [PRE4] | 3.11 ± 0.09 | 3.34 ± 0.12 | 3.32 ± 0.11 | 3.21 ± 0.063 |
